Article PMC7935953, “Insights on autophagosome–lysosome tethering from structural and biochemical characterization of human autophagy factor EPG5” (Communications Biology, 2021)

How the values were obtained:
Assay in all cases: pull-down; GST pull-down: purified GST-LC3A/B/C or GST-GABARAP/L1/L2 bait (200–240 µg) on glutathione resin, purified His-FLAG-hEPG5 or mutant (25–30 µg) as prey; 50 mM Tris pH 8.0, 150 mM NaCl, 5% glycerol, 0.01% Tween20, 0.5 mM DTT, 4 °C; anti-FLAG fluorescence western blot
[1] = target: GST-GABARAPL1 (human) (UniProt Q9H0R8)
[2] = target: GST-GABARAPL2 (human) (UniProt P60520)
[3] = target: GST-GABARAP (human) (UniProt O95166)

Measured: fold more hEPG5 precipitated than by the LC3 subfamily

Sequence of GST-GABARAP (human) (O95166 whole entry): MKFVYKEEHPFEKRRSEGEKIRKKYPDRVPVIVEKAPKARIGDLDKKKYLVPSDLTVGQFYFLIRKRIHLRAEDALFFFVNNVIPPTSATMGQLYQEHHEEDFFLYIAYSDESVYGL
Sequence of GST-GABARAPL2 (human) (P60520 whole entry): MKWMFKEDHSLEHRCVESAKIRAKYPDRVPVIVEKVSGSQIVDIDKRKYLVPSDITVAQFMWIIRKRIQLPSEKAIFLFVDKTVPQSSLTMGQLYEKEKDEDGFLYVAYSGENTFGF
Sequence of GST-GABARAPL1 (human) (Q9H0R8 whole entry): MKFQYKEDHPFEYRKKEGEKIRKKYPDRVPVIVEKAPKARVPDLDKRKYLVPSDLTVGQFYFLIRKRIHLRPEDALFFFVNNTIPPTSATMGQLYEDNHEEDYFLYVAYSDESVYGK

His-FLAG-hEPG5 (human EPG5, full length, wild type), Q9HCE0 1-2579
2.5 times: all assays above
